Test results as given in patent publication US20250242064A1, “CXCR4-TARGETING COMPOUNDS, AND METHODS OF MAKING AND USING THE SAME” (PROVINCIAL HEALTH SERVICES AUTHORITY, priority 2022, published 2025).
Where a SMILES comes first, the peptide text is derived from it. Bridges are numbered along the chain shown (N, C = ends). Side-chain parts run from the residue outwards. [ ]: non-standard residue; d: D form. The star is where a group is joined. X1 = O=C(O)CN1CCN(CC(=O)O)CCN(CC(=O)N[C@@H](CS(=O)(=O)O)C(=O)N[C@@H](CCCCNC(=O)CCCc2ccc(I)cc2)C(=O)*)CCN(CC(=O)O)CC1; X2 = O=C(O)CN1CCOCCN(CC(=O)O)CCN(CC(=O)*)CCOCCN(CC(=O)O)CC1; 2Nal = N[C@@H](Cc1ccc2ccccc2c1)C(=O)O; Lys(iPr) = CC(C)NCCCC[C@H](N)C(=O)O; Cya = N[C@@H](CS(=O)(=O)O)C(=O)O

Legend:
Z138 tumor-bearing mice = test: in vivo; conditions: male, NOD.Cg-Rag1tm1Mom Il2rgtm1Wjl/SzJ (NRG), mouse, iv
Outline: (§1)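 Male NRG mice bearing subcutaneous Z138 mantle cell lymphoma xenografts (5×10^6 cells, grown to 200-300 mm^3) injected intravenously under isoflurane with 68Ga-labelled tracers. Harvested tissues weighed and gamma-counted; uptake expressed as % ID/g.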

in vivo = test: in vivo; parameters: species or system mice; conditions: male, NOD.Cg-Rag1tm1Momll2rgtm1Wjl/SzJ (NRG), mouse, iv, total radioactivity, Mean; for tissue uptake at 1 h / tissue uptake at 3 h / tissue uptake at 24 h / tissue uptake at 72 h / tissue uptake at 120 h: Biodistribution
Outline: as §1

SMILES: CC(C)NCCCC[C@H](NC(=O)[C@H]1CCC(=O)N[C@@H](CCCCNC(=O)[C@H](CCCCNC(=O)CCCc2ccc(I)cc2)NC(=O)[C@H](CS(=O)(=O)O)NC(=O)CN2CCN(CC(=O)O)CCN(CC(=O)O)CCN(CC(=O)O)CC2)C(=O)N[C@@H](Cc2ccc(O)cc2)C(=O)N[C@@H](CCCCNC(C)C)C(=O)N[C@H](CCCNC(=N)N)C(=O)N[C@@H](Cc2ccc3ccccc3c2)C(=O)N[C@H](C)C(=O)N1)C(N)=O [[^177Lu]Lu-BL34L11] [metal not drawn] (K(X1)Y[Lys(iPr)][dR][2Nal][dA][dE][Lys(iPr)]-NH2; lactam N-7)
- Biodistribution: Adrenals (Z138 tumor-bearing mice; 1 h): 3.76 % ID/g
- Biodistribution: Blood (Z138 tumor-bearing mice; 1 h): 18.59 % ID/g
- Biodistribution: Bone (Z138 tumor-bearing mice; 1 h): 1.16 % ID/g
- Biodistribution: Brain (Z138 tumor-bearing mice; 1 h): 0.29 % ID/g
- Biodistribution: Heart (Z138 tumor-bearing mice; 1 h): 4.23 % ID/g
- Biodistribution: Kidneys (Z138 tumor-bearing mice; 1 h): 5.23 % ID/g
- Biodistribution: Liver (Z138 tumor-bearing mice; 1 h): 3.14 % ID/g
- Biodistribution: Lungs (Z138 tumor-bearing mice; 1 h): 14.83 % ID/g
- Biodistribution: Muscle (Z138 tumor-bearing mice; 1 h): 1.20 % ID/g
- Biodistribution: Pancreas (Z138 tumor-bearing mice; 1 h): 1.80 % ID/g
- Biodistribution: Small Intestine (Z138 tumor-bearing mice; 1 h): 1.56 % ID/g
- Biodistribution: Spleen (Z138 tumor-bearing mice; 1 h): 1.56 % ID/g
- Biodistribution: Stomach (Z138 tumor-bearing mice; 1 h): 0.61 % ID/g
- Biodistribution: Testes (Z138 tumor-bearing mice; 1 h): 2.49 % ID/g
- Biodistribution: Z138 Tumor (Z138 tumor-bearing mice; 1 h): 4.09 % ID/g
- Ratio Tumor-to-Blood (Z138 tumor-bearing mice; 1 h): 0.22
- Ratio Tumor-to-Bone (Z138 tumor-bearing mice; 1 h): 2.39
- Ratio Tumor-to-Kidney (Z138 tumor-bearing mice; 1 h): 0.78
- Ratio Tumor-to-Muscle (Z138 tumor-bearing mice; 1 h): 3.35
- Ratio Tumor-to-Pancreas (Z138 tumor-bearing mice; 1 h): 2.31
- Biodistribution: Adrenals (Z138 tumor-bearing mice; 3 h): 3.12 % ID/g
- Biodistribution: Blood (Z138 tumor-bearing mice; 3 h): 14.23 % ID/g
- Biodistribution: Bone (Z138 tumor-bearing mice; 3 h): 0.97 % ID/g
- Biodistribution: Brain (Z138 tumor-bearing mice; 3 h): 0.22 % ID/g
- Biodistribution: Heart (Z138 tumor-bearing mice; 3 h): 3.34 % ID/g
- Biodistribution: Kidneys (Z138 tumor-bearing mice; 3 h): 3.92 % ID/g
- Biodistribution: Liver (Z138 tumor-bearing mice; 3 h): 3.18 % ID/g
- Biodistribution: Lungs (Z138 tumor-bearing mice; 3 h): 7.95 % ID/g
- Biodistribution: Muscle (Z138 tumor-bearing mice; 3 h): 1.25 % ID/g
- Biodistribution: Pancreas (Z138 tumor-bearing mice; 3 h): 1.54 % ID/g
- Biodistribution: Small Intestine (Z138 tumor-bearing mice; 3 h): 1.35 % ID/g
- Biodistribution: Spleen (Z138 tumor-bearing mice; 3 h): 2.03 % ID/g
- Biodistribution: Stomach (Z138 tumor-bearing mice; 3 h): 0.83 % ID/g
- Biodistribution: Testes (Z138 tumor-bearing mice; 3 h): 3.53 % ID/g
- Biodistribution: Z138 Tumor (Z138 tumor-bearing mice; 3 h): 9.81 % ID/g
- Ratio Tumor-to-Blood (Z138 tumor-bearing mice; 3 h): 0.69
- Ratio Tumor-to-Bone (Z138 tumor-bearing mice; 3 h): 8.14
- Ratio Tumor-to-Kidney (Z138 tumor-bearing mice; 3 h): 2.52
- Ratio Tumor-to-Muscle (Z138 tumor-bearing mice; 3 h): 7.89
- Ratio Tumor-to-Pancreas (Z138 tumor-bearing mice; 3 h): 6.59

SMILES: CC(C)NCCCC[C@H](NC(=O)[C@H]1CCC(=O)N[C@@H](CCCCNC(=O)[C@H](CS(=O)(=O)O)NC(=O)CN2CCOCCN(CC(=O)O)CCN(CC(=O)O)CCOCCN(CC(=O)O)CC2)C(=O)N[C@@H](Cc2ccc(O)cc2)C(=O)N[C@@H](CCCCNC(C)C)C(=O)N[C@H](CCCNC(=N)N)C(=O)N[C@@H](Cc2ccc3ccccc3c2)C(=O)N[C@H](C)C(=O)N1)C(N)=O [[^177Lu]Lu-crown-BL34L20, metal not drawn] (K([Cya-X2])Y[Lys(iPr)][dR][2Nal][dA][dE][Lys(iPr)]-NH2; lactam N-7)
- tissue uptake at 1 h (in vivo; Adrenals): 0.2 %ID/g
- tissue uptake at 3 h (in vivo; Adrenals): 0.11 %ID/g
- tissue uptake at 24 h (in vivo; Adrenals): 0.1 %ID/g
- tissue uptake at 72 h (in vivo; Adrenals): 0.08 %ID/g
- tissue uptake at 120 h (in vivo; Adrenals): 0.05 %ID/g
- tissue uptake at 1 h (in vivo; Blood): 0.35 %ID/g
- tissue uptake at 3 h (in vivo; Blood): 0.08 %ID/g
- tissue uptake at 24 h (in vivo; Blood): 0.02 %ID/g
- tissue uptake at 72 h (in vivo; Blood): 0.01 %ID/g
- tissue uptake at 1 h (in vivo; Bone): 0.15 %ID/g
- tissue uptake at 3 h (in vivo; Bone): 0.15 %ID/g
- tissue uptake at 24 h (in vivo; Bone): 0.51 %ID/g
- tissue uptake at 72 h (in vivo; Bone): 0.66 %ID/g
- tissue uptake at 120 h (in vivo; Bone): 0.56 %ID/g
- tissue uptake at 1 h (in vivo; Brain): 0.01 %ID/g
- tissue uptake at 3 h (in vivo; Brain): 0.01 %ID/g
- tissue uptake at 24 h (in vivo; Brain): 0.01 %ID/g
- tissue uptake at 72 h (in vivo; Brain): 0.01 %ID/g
- tissue uptake at 1 h (in vivo; Heart): 0.14 %ID/g
- tissue uptake at 3 h (in vivo; Heart): 0.06 %ID/g
- tissue uptake at 24 h (in vivo; Heart): 0.05 %ID/g
- tissue uptake at 72 h (in vivo; Heart): 0.05 %ID/g
- tissue uptake at 120 h (in vivo; Heart): 0.05 %ID/g
- tissue uptake at 1 h (in vivo; Kidneys): 3.02 %ID/g
- tissue uptake at 3 h (in vivo; Kidneys): 2.45 %ID/g
- tissue uptake at 24 h (in vivo; Kidneys): 1.81 %ID/g
- tissue uptake at 72 h (in vivo; Kidneys): 0.94 %ID/g
- tissue uptake at 120 h (in vivo; Kidneys): 0.59 %ID/g
- tissue uptake at 1 h (in vivo; Liver): 0.73 %ID/g
- tissue uptake at 3 h (in vivo; Liver): 0.77 %ID/g
- tissue uptake at 24 h (in vivo; Liver): 0.81 %ID/g
- tissue uptake at 72 h (in vivo; Liver): 0.67 %ID/g
- tissue uptake at 120 h (in vivo; Liver): 0.59 %ID/g
- tissue uptake at 1 h (in vivo; Lungs): 0.53 %ID/g
- tissue uptake at 3 h (in vivo; Lungs): 0.28 %ID/g
- tissue uptake at 24 h (in vivo; Lungs): 0.2 %ID/g
- tissue uptake at 72 h (in vivo; Lungs): 0.17 %ID/g
- tissue uptake at 120 h (in vivo; Lungs): 0.15 %ID/g
- tissue uptake at 1 h (in vivo; Muscle): 0.09 %ID/g
- tissue uptake at 3 h (in vivo; Muscle): 0.03 %ID/g
- tissue uptake at 24 h (in vivo; Muscle): 0.03 %ID/g
- tissue uptake at 72 h (in vivo; Muscle): 0.02 %ID/g
- tissue uptake at 120 h (in vivo; Muscle): 0.01 %ID/g
- tissue uptake at 1 h (in vivo; Pancreas): 0.12 %ID/g
- tissue uptake at 3 h (in vivo; Pancreas): 0.04 %ID/g
- tissue uptake at 24 h (in vivo; Pancreas): 0.04 %ID/g
- tissue uptake at 72 h (in vivo; Pancreas): 0.03 %ID/g
- tissue uptake at 120 h (in vivo; Pancreas): 0.03 %ID/g
- tissue uptake at 1 h (in vivo; Small Intestine): 0.23 %ID/g
- tissue uptake at 3 h (in vivo; Small Intestine): 0.1 %ID/g
- tissue uptake at 24 h (in vivo; Small Intestine): 0.17 %ID/g
- tissue uptake at 72 h (in vivo; Small Intestine): 0.08 %ID/g
- tissue uptake at 120 h (in vivo; Small Intestine): 0.06 %ID/g
- tissue uptake at 1 h (in vivo; Spleen): 0.29 %ID/g
- tissue uptake at 3 h (in vivo; Spleen): 0.23 %ID/g
- tissue uptake at 24 h (in vivo; Spleen): 0.26 %ID/g
- tissue uptake at 72 h (in vivo; Spleen): 0.24 %ID/g
- tissue uptake at 120 h (in vivo; Spleen): 0.22 %ID/g
- tissue uptake at 1 h (in vivo; Stomach): 0.08 %ID/g
- tissue uptake at 3 h (in vivo; Stomach): 0.09 %ID/g
- tissue uptake at 24 h (in vivo; Stomach): 0.52 %ID/g
- tissue uptake at 72 h (in vivo; Stomach): 0.12 %ID/g
- tissue uptake at 120 h (in vivo; Stomach): 0.14 %ID/g
- tissue uptake at 1 h (in vivo; Testes): 0.11 %ID/g
- tissue uptake at 3 h (in vivo; Testes): 0.04 %ID/g
- tissue uptake at 24 h (in vivo; Testes): 0.04 %ID/g
- tissue uptake at 72 h (in vivo; Testes): 0.03 %ID/g
- tissue uptake at 120 h (in vivo; Testes): 0.03 %ID/g
- tissue uptake at 1 h (in vivo; Z138 Tumor): 13.7 %ID/g
- tissue uptake at 3 h (in vivo; Z138 Tumor): 11.7 %ID/g
- tissue uptake at 24 h (in vivo; Z138 Tumor): 7.28 %ID/g
- tissue uptake at 72 h (in vivo; Z138 Tumor): 3.47 %ID/g
- tissue uptake at 120 h (in vivo; Z138 Tumor): 2.38 %ID/g
- tissue to tissue ratio at 1 h (in vivo; Tumor-to-Blood ratio): 39.4
- tissue to tissue ratio at 3 h (in vivo; Tumor-to-Blood ratio): 147
- tissue to tissue ratio at 24 h (in vivo; Tumor-to-Blood ratio): 301
- tissue to tissue ratio at 72 h (in vivo; Tumor-to-Blood ratio): 396
- tissue to tissue ratio at 120 h (in vivo; Tumor-to-Blood ratio): 607
- tissue to tissue ratio at 1 h (in vivo; Tumor-to-Bone ratio): 94
- tissue to tissue ratio at 3 h (in vivo; Tumor-to-Bone ratio): 83.2
- tissue to tissue ratio at 24 h (in vivo; Tumor-to-Bone ratio): 15.3
- tissue to tissue ratio at 72 h (in vivo; Tumor-to-Bone ratio): 5.53
- tissue to tissue ratio at 120 h (in vivo; Tumor-to-Bone ratio): 5.33
- tissue to tissue ratio at 1 h (in vivo; Tumor-to-Kidney ratio): 4.54
- tissue to tissue ratio at 3 h (in vivo; Tumor-to-Kidney ratio): 4.78
- tissue to tissue ratio at 24 h (in vivo; Tumor-to-Kidney ratio): 4.01
- tissue to tissue ratio at 72 h (in vivo; Tumor-to-Kidney ratio): 3.69
- tissue to tissue ratio at 120 h (in vivo; Tumor-to-Kidney ratio): 4.1
- tissue to tissue ratio at 1 h (in vivo; Tumor-to-Muscle ratio): 161
- tissue to tissue ratio at 3 h (in vivo; Tumor-to-Muscle ratio): 430
- tissue to tissue ratio at 24 h (in vivo; Tumor-to-Muscle ratio): 281
- tissue to tissue ratio at 72 h (in vivo; Tumor-to-Muscle ratio): 175
- tissue to tissue ratio at 120 h (in vivo; Tumor-to-Muscle ratio): 178
- tissue to tissue ratio at 1 h (in vivo; Tumor-to-Pancreas ratio): 140
- tissue to tissue ratio at 3 h (in vivo; Tumor-to-Pancreas ratio): 276
- tissue to tissue ratio at 24 h (in vivo; Tumor-to-Pancreas ratio): 198
- tissue to tissue ratio at 72 h (in vivo; Tumor-to-Pancreas ratio): 103
- tissue to tissue ratio at 120 h (in vivo; Tumor-to-Pancreas ratio): 78
